Experiment: soluble on expression in E. coli; label from the status in PepcDB or PDB records

Soluble on expression in E. coli, not soluble:
MGSDKIHHHHHHQPSSNRYARVDAAILSIPDEYTKKVDTFAEYINRKFKGDEAKMRAIYVWMTHRMAYNVFTTFTSRNEVYSEEKEVQETLSTRKGVCRQFALLFKTLAGKVGIKAYLIDGYGKSGNVVLPEVHEWCVAQVNGEWYFFDPTYDTGYIEDYRFVSAPDDVYFKQLPERFIQTHMPFDPLWQFLKRPYSYSEFEKGVLESGRNVPFFCWQDSLKVYDRQSWVEQLEAARSRILANGKGNDLVDYFLQLNQANTQVGKDSEAIDVYAAATDLQNRAVDSINVFIRYRKAGFRPRKAEAQVRRMIEVSEELTLRADSLINSVHTISPQYKQALLNLRESIMDLAMQIYKHKLFLERYYATKPSLRGNLLRR
MGSDKIHHHHHHSGSFDPVTGAYTTDPITVTLTPKTVAVSTSVIANGERVYWATDKYPQGAGTFYWGSHTYTLESASDVTLAIPGINASGVCTATGSGTSLTINGCFSFSHNGTIYMGKSASCKSFFSLQSNLSSLTNFGDFVALTLGPGTNTIQLNKTGITDVNTTSFTYPSTTRSTSYRWTTYDINLQATLSAKTPPYTYLYCSVSQGLRVIMTTGGVVPNPFAMVPAASKPAYSPTISYSPALPIINTIAVNIRNITAIDILPRTVFNTGTISAWRTTYMEQPLTVTGQGNITRDFGASQNFNVLESWTCATTGQIDFRIMRDNTNANVCSGATYTHPVQTPQSLTAQWKAQSSTASGAWSARATVTFTLP
MGSDKIHHHHHHSKNSLPILDSFLFNLEGNTLTVTASDAETRLVTSVDVMNAQGAGLFAVSAKILLDPLKELPEQPLTFDINDENLEIFIHFQNGKYNFIGQKGDTYPQQKPLNDNAISISMDAQMLLNGISRSLFATADDELRPVMNGVYFDIHTDDLTFVASDGHKLVRLRNLAVKSPERASFILPKKPANLLKNLLAKESEQVLIKFDDNNAYITCTNFEMVCRLIEGRYPNYNSVIPQENPFKVTIDRISFLNALKRVSVFSNPASSLVKLHLKDSLITVSAQDIDFSTSAEERIVCQFDGTELSIGFKATYLIEILGNISSEEVVLELADPSRAGLIVPSENDEDEDLLMLLMPMMLND
MGSDKIHHHHHHSPTTTVTTTDASVTTTPPTTTPPTTAVVTDCTTCTAALITLTQGTDGAVDATPVEGVDATGCATITYTCENTPVDAQNVIFLTFYGGGIDRGVDQGTGSLNVLLNCVDGAWVRGGLVIDEILCQVI
MGSDKIHHHHHHSRSGEKAAQQLVDYFIYQEKPETFSQTFREPKVLAEHLQTSRQQFQKQFFNSLKEMNAEVTETEAQKLSAELLAQVKKKASYQLVATKELNGQATITFQIKGLDFVTAIEDTTTALLQQTQQATQALDMQHTLAVLKKEIQQINVSHEPVELPLTVKQVEGQWYLPAVEQLRLNQFFLAFVTGKEDTDQLTEALDTILTQAEQKVVTADERTAIAGN
MGSDKIHHHHHHTKRWEEGKMSNFEYLTMLNLFAGRTIHDSSSSPIFPRILAKFGDKSVDLQDKTIYRKLDRPVAAQDPVSVEKHKEHYNELKENEEISHLTPYHFGSMCSNRGVVSFFNIRLLPFGEEAIELQDGRFDFPDRLFHNIESGLGLGKIESSNDYKELVPELFTTVEVLRNDNGNQFGEKQNGETVNDVDVPQWCYMDEKAVHENFIYLHRHALESEIVQSMLHHWIDLVFGYKSRGKSAHDAINVYHPAVYPGNSPPPSFDRVMTNAYEANQKTLGTAPIQLFTQSHPKR
MGSDKIHHHHHHTSEEREVFENQEGMHRLIPLIEAQTEEDLTPTMREYFAQIREYRKTPHVKGFGWFGNWTGKGNNAQNYLKMLPDSVDFVSLWGTRGYLSDEQKADLKFFQEVKGGKALLCWIIQDLGDQLTPKGLNATQYWVEEKGQGNFIEGVKAYANAICDSIEKYNLDGFDIDYEPGYGHSGTLANYQTISPSGNNKMQVFIETLSARLRPAGRMLVMDGQPDLLSTETSKLVDHYIYQAYWESSTSSVIYKINKPNLDDWERKTIITVEFEQGWKTGGITYYTSVRPELNSMEGNQILDYATLDLPSGKRIGGIGTYHMEYDYPNDPPYKWLRKALYFGNQVYPGKFD
MGSDKIHHHHHHTVPTFYLFGLLIMHNAAQHNYVISLTTEQKRRKHITEEFGKQNIPFEFFDAITPDIIEETAKKFNITLDRSPKAKLSDGEIGCALSHIVLWDLALENNLNYINIFEDDIHLGENAKELLEIDYISDDIHVLKLEANGKMFFKQPKSVKCDRNVYPMTVKQSGCAGYTVTAKGAKYLLELVKNKPLDVAVDSLVFEDFLHFKDYKIVQLSPGICVQDFVLHPDNPFESSLQEGRDRVHGNQRKSSILEKIKNEFGRVKIKMFGKQVPFK
MGSDKIHHHHHHVAPPTKGGLAEAENKMENKMTEQQGYWIGEAGKPWGEAEKAKWRAAQQKKRSYEQEVLSKFSQVSESFEAQQYGELNYAEGQYPLYGFKSRDWDQEKPTILVTGGVHGYETSGVQGALRFLIAKAAEYSQDFNILVAPCVSPWGYETINRWNPEAIDPNRSFYADSPAQESRALMQWVASFNLPLMAHIDLHETTDTDNSEFRPALAARDAKVQTNWNIPDGFYLVGDSENPNDEMQAAIIAAVGKVTHIAPADEQGRLIGEPITQFGVINYATKALGLCSGFSDARYNTTTEVYPDSPLVDDENCIQAQVMAVSSALDYIRSQG
MGSDKIHHHHHHVEGDCMGKGRFILMLHAHLPFINHPDFPSFMEERWLFEAITETYIPLLQGFRRLKRDGVNFKVTMSITPPLMEMFANKDLQKKYLNYLSSSIELAGNEISRTVSEHPAANRLATHYLRELEEIRAVYNECNGDLVGEFAQLQETGELEIVTCNATHGFLPLMTNFPEAINAQIEIGVDSYKKHTGREPRGIWLAECGYVPGFDSYLREHGLSFFFVDSHSLWYGDPAPRYGVYRPVVTPENVFAFARDPESSQQVWSAEVGYPGDARYREFYRDVGFDREEDYIRPYIDPSGERCNTGIKYYKITGKDVSLNEKGYYDIEDARRATVEHAKDFANRKREQIRRLSSQFDGEEPVIVAPFDAELFGHWWYEGPLFIEELFRELNGDITVVPSTPPEVIKSMEQAQVVTP
MGSDKIHHHHHHVKKLLNTLFINQSDSYLALDGGNVLVKADGQVLGRVPLHNLEGIVAFGYTGASPALMGHCAENGIALTFMTKNGRFLARVIGESRGNVVLRKTQYRRSDDEVASARLAKNFILGKLYNQKWMLERMTRDYPLRLDVERFKTTSQDMTETMREIQVCENLERLRGLEGTIAVRYNRLFDSMILQQKEDFHFKGRTRRPPLDRVNAMLSFAYSLLARDVSAALEAVGLDAYVGFLHRERPGRASLALDVMEELRGIYADRFVLSLINKKVIQGKDFLQKENGAVIMTEEGRKTFLTAWQKKKQETIQHPYLKEKMMWGLVPYEQALLLARHLRDDLEAYPPFLYK
MGSDKIHHHHHHVKQQRKEIQVLDRLNQAMEYIERHLDQRIEGAELAQIAATSEYHMRRLFSALAGMPLSEYIRRRRLTVAGAEVLAGDRTLLDIAVRYGYGSAEAFARAFRAMHGVGPGEARRTGAPLRSQPRMSFRLVVEGSTDMRYRIVEKDAFQVVGKKARVPLVYEGPNPAIVEFVRSIDPGTLQRLAELSDQEPRGVVAAVANIAGERVSAPEGTELDYYHGVVTSAPAPEDMAVLPVAAGLWAVFEVEGEAPYAIQYLWRDVFTQWFPANPYQSVPGPELLRTTMSQDGAYVEAELWVPVERVER
MGSDKIHHHHHHVKVLVTGAAGFIGYSLATRLLARGDEVIGVDIVNDYYDPRLKEARLARLAQQGGGRFTFLRTDFADYPALTAALEGAHFDRIVHLGAQAGVRYSIENPHAYVQSNLVGHVNLLEVARHRGVEHMVYASSSSVYGGNTKLPFSVDDRVDHPLSLYAATKKADELMSETYAHLYRLPLTGLRFFTVYGPWGRPDMMMWLFTRAILAGEPIQVFNHGDMYRDFTYVDDIVSGVVACLDNPPLDDGAPKAGGSLKPHRLYNIGNHKSEHLMKVIAILEAELGRKAEMRMLPMQPGDVRQSFADIDAISGDLGYRPTTGIETGVPNFVRWYKDYHGL

Source: the DeepSol protein solubility set
